For 38 molecules, normalised SPOT signal, Boehringer light units (BLU); mean over the file's lines of this peptide results are on record in article PMC314469, “Protein Interaction Networks by Proteome Peptide Scanning” (PLoS Biology, 2004).

T1: amphyphisin SH3 (AMPH_HUMAN), P49418
T1 chain: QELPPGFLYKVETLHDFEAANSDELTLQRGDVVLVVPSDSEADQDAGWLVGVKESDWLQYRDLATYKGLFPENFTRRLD

One assay has as its target T1, amphyphisin SH3 (AMPH_HUMAN), P49418. Briefly: SPOT array.
SINLLSRPERGWEG [Q14801 17-30] displayed a normalised SPOT signal, Boehringer light units (BLU); mean over the file's lines of this peptide of 0.

For SIHPPGRPPAVRGP [P50570 773-787], the normalised SPOT signal, Boehringer light units (BLU); mean over the file's lines of this peptide was 340.

The molecule SGKGLRRPHSTVEE [Q9P2L5 16-29] gave a normalised SPOT signal, Boehringer light units (BLU); mean over the file's lines of this peptide of 44.8.

Turning to SLHGPRRPQPGASG [O95428 745-758], the normalised SPOT signal, Boehringer light units (BLU); mean over the file's lines of this peptide turned out to be 33.5.

SAGPPSRPQRPFSA [O43257 105-118] gave a normalised SPOT signal, Boehringer light units (BLU); mean over the file's lines of this peptide of 4230.

SHHPPDRPPDPFST [Q8TA97 483-497] gave a normalised SPOT signal, Boehringer light units (BLU); mean over the file's lines of this peptide of 30.4.

As for SGGRPIKPPKKDLE [Q15059 280-294], the normalised SPOT signal, Boehringer light units (BLU); mean over the file's lines of this peptide was found to be 48.5.

Molecule SGSRPRKPPPRKHT [Q9P189 81-95] returned a normalised SPOT signal, Boehringer light units (BLU); mean over the file's lines of this peptide of 3680.

SGLAPKRPGPAGEL [Q16849 127-140] yielded a normalised SPOT signal, Boehringer light units (BLU); mean over the file's lines of this peptide of 22.9.

SGGRLRRPVNVPLD [Q09470 98-111] had a normalised SPOT signal, Boehringer light units (BLU); mean over the file's lines of this peptide of 33.6.

SGMAFPRPKRPAPA [Q9BQ84 245-258]: the normalised SPOT signal, Boehringer light units (BLU); mean over the file's lines of this peptide stood at 1310.

For the molecule SLKIFRRPRKLFMQ [Q99776 220-233], the normalised SPOT signal, Boehringer light units (BLU); mean over the file's lines of this peptide stood at 88.1.

SGLRLRRPRVSSTE [Q9H3P9 250-263] showed a normalised SPOT signal, Boehringer light units (BLU); mean over the file's lines of this peptide of 67.4.

On to SGNSLKRPDTTESL [Q96SU4 326-339], for which the normalised SPOT signal, Boehringer light units (BLU); mean over the file's lines of this peptide is 24.4.

For SIVEFFRPPKEVHL [Q96RL7 600-613], the normalised SPOT signal, Boehringer light units (BLU); mean over the file's lines of this peptide stood at 164.

As to SGGRLRRPAHVPLD [Q9BYS4 74-87], the normalised SPOT signal, Boehringer light units (BLU); mean over the file's lines of this peptide was determined as 20.8.

SGPGPARPARARPR [P53539 130-143]: the normalised SPOT signal, Boehringer light units (BLU); mean over the file's lines of this peptide was determined as 14900.

For the molecule SKASLSRPGRRPLG [Q9C0H4 580-593], the normalised SPOT signal, Boehringer light units (BLU); mean over the file's lines of this peptide is 226.

The molecule AAVAPSRPGREPQA [Q9ULI4 780-793] gave a normalised SPOT signal, Boehringer light units (BLU); mean over the file's lines of this peptide of 2520.

SGTPIRRPMGQMKP [P16930 169-182]: the normalised SPOT signal, Boehringer light units (BLU); mean over the file's lines of this peptide was 3.3.

SITQLRRPSQLLYP [Q96AN7 126-139]: the normalised SPOT signal, Boehringer light units (BLU); mean over the file's lines of this peptide worked out at 9.2.

Regarding SGVLLVRPSRLSSS [P11362 439-452], the normalised SPOT signal, Boehringer light units (BLU); mean over the file's lines of this peptide worked out at 7990.

SGGRPLRPPHPVAK [O76081 141-155] yielded a normalised SPOT signal, Boehringer light units (BLU); mean over the file's lines of this peptide of 718.

Turning to SGPDLRRPPTPAPW [Q96IB8 451-464], the normalised SPOT signal, Boehringer light units (BLU); mean over the file's lines of this peptide was 39.4.

SLALPRRPQNRDSI [Q9HCG4 261-274] came in with a normalised SPOT signal, Boehringer light units (BLU); mean over the file's lines of this peptide of 96.2.

SHGSPRRPGPEPGA [O95180 532-545] gave a normalised SPOT signal, Boehringer light units (BLU); mean over the file's lines of this peptide of 44.7.

Turning to SGSKLKRPTPTFHS [Q9UPN3 5307-5320], the normalised SPOT signal, Boehringer light units (BLU); mean over the file's lines of this peptide came to 41.6.

Consider SLEVIRRPETKVLI [Q9BYK8 558-571], for which the normalised SPOT signal, Boehringer light units (BLU); mean over the file's lines of this peptide stood at 22.1.

SALSLRRPHSGWSA [O75097 1019-1032] had a normalised SPOT signal, Boehringer light units (BLU); mean over the file's lines of this peptide of 27.1.

Molecule SKTPPQRPPPQGGP returned a normalised SPOT signal, Boehringer light units (BLU); mean over the file's lines of this peptide of 127.

As for SGTALLRPLRPKPP [Q92766 106-119], the normalised SPOT signal, Boehringer light units (BLU); mean over the file's lines of this peptide was determined as 147.

For SIWDPRRPLNTTEG [P09848 409-422], the normalised SPOT signal, Boehringer light units (BLU); mean over the file's lines of this peptide stood at 10.9.

In turn, SARGPLRPPVRSPA [P30084 9-23] gave a normalised SPOT signal, Boehringer light units (BLU); mean over the file's lines of this peptide of 3810.

Take SGGRLRRPVNVSLD [P22460 181-194]: the normalised SPOT signal, Boehringer light units (BLU); mean over the file's lines of this peptide was 56.9.

As for SLSFIARPGKVSQL [P21128 321-334], the normalised SPOT signal, Boehringer light units (BLU); mean over the file's lines of this peptide was 152.

Regarding SKTPPQRPPPQGSL, the normalised SPOT signal, Boehringer light units (BLU); mean over the file's lines of this peptide was 193.

Consider SLASPRRPLLSDFA [Q96RJ6 21-34], for which the normalised SPOT signal, Boehringer light units (BLU); mean over the file's lines of this peptide was 78.6.

The molecule SISFPTRPPLQAQI [Q8TDT3 61-75] displayed a normalised SPOT signal, Boehringer light units (BLU); mean over the file's lines of this peptide of 61.2.

Another assay addresses endophilin SH3 (SH3G2_HUMAN), Q99962. Nature of the assay: SPOT array.
In turn, SINLLSRPERGWEG [Q14801 17-30] yielded a normalised SPOT signal, Boehringer light units (BLU); mean over the file's lines of this peptide of 97.2.

Regarding SIHPPGRPPAVRGP [P50570 773-787], the normalised SPOT signal, Boehringer light units (BLU); mean over the file's lines of this peptide was 2730.

SGKGLRRPHSTVEE [Q9P2L5 16-29]: the normalised SPOT signal, Boehringer light units (BLU); mean over the file's lines of this peptide came to 17.2.

In turn, SLHGPRRPQPGASG [O95428 745-758] displayed a normalised SPOT signal, Boehringer light units (BLU); mean over the file's lines of this peptide of 256.

For the molecule SAGPPSRPQRPFSA [O43257 105-118], the normalised SPOT signal, Boehringer light units (BLU); mean over the file's lines of this peptide was 2420.

In turn, SHHPPDRPPDPFST [Q8TA97 483-497] registered a normalised SPOT signal, Boehringer light units (BLU); mean over the file's lines of this peptide of 1390.

In turn, SGGRPIKPPKKDLE [Q15059 280-294] returned a normalised SPOT signal, Boehringer light units (BLU); mean over the file's lines of this peptide of 66.

Take SGSRPRKPPPRKHT [Q9P189 81-95]: the normalised SPOT signal, Boehringer light units (BLU); mean over the file's lines of this peptide was 3720.

Consider SGLAPKRPGPAGEL [Q16849 127-140], for which the normalised SPOT signal, Boehringer light units (BLU); mean over the file's lines of this peptide was 11.3.

For the molecule SGGRLRRPVNVPLD [Q09470 98-111], the normalised SPOT signal, Boehringer light units (BLU); mean over the file's lines of this peptide worked out at 44.

Consider SGMAFPRPKRPAPA [Q9BQ84 245-258], for which the normalised SPOT signal, Boehringer light units (BLU); mean over the file's lines of this peptide amounted to 629.

On to SLKIFRRPRKLFMQ [Q99776 220-233], for which the normalised SPOT signal, Boehringer light units (BLU); mean over the file's lines of this peptide turned out to be 74.5.

Molecule SGLRLRRPRVSSTE [Q9H3P9 250-263] registered a normalised SPOT signal, Boehringer light units (BLU); mean over the file's lines of this peptide of 44.7.

For SGNSLKRPDTTESL [Q96SU4 326-339], the normalised SPOT signal, Boehringer light units (BLU); mean over the file's lines of this peptide is 18.9.

With SIVEFFRPPKEVHL [Q96RL7 600-613], the normalised SPOT signal, Boehringer light units (BLU); mean over the file's lines of this peptide was determined as 98.5.

The molecule SGGRLRRPAHVPLD [Q9BYS4 74-87] displayed a normalised SPOT signal, Boehringer light units (BLU); mean over the file's lines of this peptide of 24.7.

The molecule SGPGPARPARARPR [P53539 130-143] returned a normalised SPOT signal, Boehringer light units (BLU); mean over the file's lines of this peptide of 17200.

With SKASLSRPGRRPLG [Q9C0H4 580-593], the normalised SPOT signal, Boehringer light units (BLU); mean over the file's lines of this peptide amounted to 53.5.

Turning to AAVAPSRPGREPQA [Q9ULI4 780-793], the normalised SPOT signal, Boehringer light units (BLU); mean over the file's lines of this peptide is 418.

SGTPIRRPMGQMKP [P16930 169-182] registered a normalised SPOT signal, Boehringer light units (BLU); mean over the file's lines of this peptide of 148.

As for SITQLRRPSQLLYP [Q96AN7 126-139], the normalised SPOT signal, Boehringer light units (BLU); mean over the file's lines of this peptide was found to be 36.3.

The molecule SGVLLVRPSRLSSS [P11362 439-452] gave a normalised SPOT signal, Boehringer light units (BLU); mean over the file's lines of this peptide of 210.

For SGGRPLRPPHPVAK [O76081 141-155], the normalised SPOT signal, Boehringer light units (BLU); mean over the file's lines of this peptide turned out to be 6230.

Molecule SGPDLRRPPTPAPW [Q96IB8 451-464] came in with a normalised SPOT signal, Boehringer light units (BLU); mean over the file's lines of this peptide of 39.1.

The molecule SLALPRRPQNRDSI [Q9HCG4 261-274] registered a normalised SPOT signal, Boehringer light units (BLU); mean over the file's lines of this peptide of 866.

Molecule SHGSPRRPGPEPGA [O95180 532-545] yielded a normalised SPOT signal, Boehringer light units (BLU); mean over the file's lines of this peptide of 31.

SGSKLKRPTPTFHS [Q9UPN3 5307-5320] returned a normalised SPOT signal, Boehringer light units (BLU); mean over the file's lines of this peptide of 40.3.

For SLEVIRRPETKVLI [Q9BYK8 558-571], the normalised SPOT signal, Boehringer light units (BLU); mean over the file's lines of this peptide is 65.4.

Take SALSLRRPHSGWSA [O75097 1019-1032]: the normalised SPOT signal, Boehringer light units (BLU); mean over the file's lines of this peptide was 47.4.

As to SKTPPQRPPPQGGP, the normalised SPOT signal, Boehringer light units (BLU); mean over the file's lines of this peptide was determined as 1450.

For SGTALLRPLRPKPP [Q92766 106-119], the normalised SPOT signal, Boehringer light units (BLU); mean over the file's lines of this peptide was determined as 153.

SIWDPRRPLNTTEG [P09848 409-422] returned a normalised SPOT signal, Boehringer light units (BLU); mean over the file's lines of this peptide of 41.8.

For the molecule SARGPLRPPVRSPA [P30084 9-23], the normalised SPOT signal, Boehringer light units (BLU); mean over the file's lines of this peptide came out at 1950.

Molecule SGGRLRRPVNVSLD [P22460 181-194] returned a normalised SPOT signal, Boehringer light units (BLU); mean over the file's lines of this peptide of 54.6.

As for SLSFIARPGKVSQL [P21128 321-334], the normalised SPOT signal, Boehringer light units (BLU); mean over the file's lines of this peptide was 146.

Take SKTPPQRPPPQGSL: the normalised SPOT signal, Boehringer light units (BLU); mean over the file's lines of this peptide was 2380.

Consider SLASPRRPLLSDFA [Q96RJ6 21-34], for which the normalised SPOT signal, Boehringer light units (BLU); mean over the file's lines of this peptide was found to be 1690.

Take SISFPTRPPLQAQI [Q8TDT3 61-75]: the normalised SPOT signal, Boehringer light units (BLU); mean over the file's lines of this peptide came to 162.
